Among the data in US20110086041A1 are Kd, koff and kon values, retold here.

In assay [1] the target is monomeric 92UG-gp120 core protein (HIV-1 isolate 92UG037). Kind of assay: SPR; told with a reference to Rits-Volloch et al. 2006 and FIG. 6C. (Surface plasmon resonance follows binding to a sensor surface in real time, without labels.)
Assay [2] has the same target. As to the kind of experiment: SPR, b12 IgG immobilized, 92UG gp120 flowing, single analyte concentration.
Assay [3] concerns the target 92UG-gp140-Fd trimer (HIV-1 isolate 92UG037.8). As to the kind of experiment: SPR, 92UGgp140-Fd immobilized, 2G12 Fab flowing, 1:1 Langmuir model.
Assay [4] concerns the target HXB2-gp41-interf-GCN4 (HIV-1 isolate HXB2) (UniProt P04578). As to the kind of experiment: SPR, His-4E10 scFv on Ni-NTA chip, HXB2gp41-interf-GCN4 flowing at 50 nM, single concentration.
Assay [5] addresses 92UG-gp41-inter-Fd (HIV-1 isolate 92UG037.8). Kind of assay: SPR, 92UGgp41-inter-Fd immobilized on CM-5, 4E10 scFv flowing at 50 nM, single concentration.
Assay [6] deals with biotinylated 4E10 epitope peptide. As to the kind of experiment: SPR, biotinylated 4E10 epitope peptide on SA chip, 4E10 scFv flowing.
For assay [7], the target named is 92UG-gp41-inter-Fd (HIV-1 isolate 92UG037.8). As to the kind of experiment: SPR, 2F5 Fab immobilized, 92UGgp41-inter-Fd flowing, 1:1 Langmuir model.
For assay [8], the target named is 92UG-gp41-post (HIV-1 isolate 92UG037.8). Kind of assay: SPR, 2F5 Fab immobilized, 92UGgp41-post flowing.
Assay [9] has as its target 92UG-gp41-inter-Fd (HIV-1 isolate 92UG037.8). As to the kind of experiment: SPR, told of the gp41-inter proteins as a group; Table 1 ties this value to 92UGgp41-inter-Fd.
A further assay deals with T20 peptide. As to the kind of experiment: SPR, 2F5 Fab immobilized, T20 flowing.
Assay [10] has as its target HXB2-gp41-inter-GCN4 (HIV-1 isolate HXB2) (UniProt P04578). Kind of assay: SPR, 2F5 Fab immobilized, HXB2gp41-inter-GCN4 flowing; dissociation phase virtually flat, actual off-rate probably slower.
The target is the same in assay [11]. Kind of assay: SPR, 2F5 Fab immobilized, HXB2gp41-inter-GCN4 flowing, 1:1 Langmuir model.
Assay [12] has as its target 92UG-gp41-inter-Fd (HIV-1 isolate 92UG037.8). As to the kind of experiment: SPR, 2F5 Fab immobilized, 92UGgp41-inter-Fd flowing; dissociation phase virtually flat, actual off-rate probably slower.
Assay [13] deals with short 2F5 epitope peptide. As to the kind of experiment: SPR, 2F5 Fab immobilized, 2F5 epitope peptide flowing.
Assay [14] has as its target short 2F5 epitope peptide. As to the kind of experiment: SPR, 2F5 epitope peptide immobilized, 2F5 Fab flowing.
Assay [15] has as its target HXB2-gp41-inter-GCN4 (HIV-1 isolate HXB2) (UniProt P04578). Kind of assay: SPR, told of the gp41-inter proteins as a group.
Assay [16] deals with 92UG-gp41-inter-Fd (HIV-1 isolate 92UG037.8). Kind of assay: SPR, told of the gp41-inter proteins as a group.
The target is the same in assay [17]. Kind of assay: SPR, 92UGgp41-inter-Fd immobilized, 2F5 Fab flowing.
In assay [18] the target is monomeric 92UG-gp120 core protein (HIV-1 isolate 92UG037). As to the kind of experiment: SPR, b6 IgG immobilized, 92UG gp120 flowing, single analyte concentration.

As usually defined, the Kd is the constant that tells how readily two partners part at equilibrium. The koff is a measure of how fast the partners let go of each other. A high value points to a short-lived complex. Broadly, the kon is the second-order rate constant of association. Higher therefore signals faster complex formation.

Substance mAb b12 whole IgG (antibody) showed a Kd in assay [1] of 1400 nM. In assay [2], this substance yielded a Kd of 993 nM, a koff of 0.0149 s⁻¹ and a kon of 15000 M⁻¹ s⁻¹.

With “Fab fragment of broadly neutralizing antibody 2G12”, in assay [3], the dissociation constant (Kd) came out at 17.9 nM, the koff turned out to be 0.000958 s⁻¹ and the association rate constant (kon) stood at 53500 M⁻¹ s⁻¹.

In assay [4], 4E10 single-chain Fv fragment (scFv) displayed a Kd of 2.98 nM, a koff of 0.000443 s⁻¹ and an on-rate constant (kon) of 149000 M⁻¹ s⁻¹. In [5], this substance gave a Kd of 1.07 nM, a koff of 0.000171 s⁻¹ and an on-rate constant (kon) of 160000 M⁻¹ s⁻¹. In [6], this substance gave an equilibrium dissociation constant (Kd) of 18.6 nM, a koff of 0.000685 s⁻¹ and an association rate constant (kon) of 36900 M⁻¹ s⁻¹.

Take Fab fragment of mAb 2F5: the Kd is 1.38 nM in assay [7]; 1410 nM in assay [8]; 4.79 nM with T20 peptide; 8.96 nM in [11]; 3.83 nM in assay [13]; 5.33 nM in assay [14]. Also, the results for the equilibrium dissociation constant (Kd) in [15], in assay [16] and in [17] were below 10 nM, below 10 nM and 3.24 nM, respectively. In addition, the kon in [7] stood at 10000 M⁻¹ s⁻¹; in assay [8], 1660 M⁻¹ s⁻¹; with T20 peptide, 454000 M⁻¹ s⁻¹; in assay [11], 6820 M⁻¹ s⁻¹; in assay [13] it was 859000 M⁻¹ s⁻¹; in [14], 282000 M⁻¹ s⁻¹. This substance gave a kon in assay [17] of 153000 M⁻¹ s⁻¹. Besides, the koff is 0.00243 s⁻¹ in assay [8]; below 1.4e-05 s⁻¹ in [9]; 0.00217 s⁻¹ with T20 peptide; 6.11e-05 s⁻¹ in [10]; 1.39e-05 s⁻¹ in [12]; 0.00329 s⁻¹ in assay [13]. Further, the koff amounted to 0.0015 s⁻¹ in assay [14] and 0.000496 s⁻¹ in assay [17].

mAb b6 whole IgG (antibody): in [18], the equilibrium dissociation constant (Kd) was 2.69 nM, the dissociation rate constant (koff) amounted to 0.000151 s⁻¹ and the on-rate (kon) is 56200 M⁻¹ s⁻¹.
